Test system: Escherichia coli TOP10
Experiment: shrunken log2 fold change of peptide-encoding DNA abundance (4.5 h post-induction vs induction); higher = less antimicrobial activity (less host growth inhibition)
Details: time post-induction: 4.5 h; library: site-saturation at positions 5, 18, 19, 20
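Also: peptides expressed intracellularly from a pBAD plasmid library in pooled LB shake-flask culture, induced with 0.3% L-arabinose, DNA abundance read by NGS, three biological replicates, DESeq2 with apeglm shrinkage.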

| Sequence | shrunken log2 fold change |
| --- | --- |
| RRIRGRPPRLPRPRPRPMSAPRP | 0.702 |
| RRIRRRPPRLPRPRPRPPGPPRP | 0.8 |
| RRIRNRPPRLPRPRPRPFCMPRP | -0.45 |
| RRIRMRPPRLPRPRPRPKHYPRP | -0.0523 |
| RRIRPRPPRLPRPRPRPPSLPRP | 0.381 |
| RRIRRRPPRLPRPRPRPKIVPRP | 0.0944 |
| RRIRPRPPRLPRPRPRPDCVPRP | -0.0187 |
| RRIRYRPPRLPRPRPRPFVPPRP | -0.285 |
| RRIRFRPPRLPRPRPRPPGGPRP | 0.782 |
| RRIRYRPPRLPRPRPRPLNCPRP | -0.295 |
| RRIRHRPPRLPRPRPRPTRYPRP | -0.453 |
| RRIRERPPRLPRPRPRPQYRPRP | -0.612 |
| RRIRQRPPRLPRPRPRPATHPRP | -0.28 |
| RRIRFRPPRLPRPRPRPLRFPRP | 0.186 |
| RRIRRRPPRLPRPRPRPHIGPRP | -0.155 |
| RRIRVRPPRLPRPRPRPHDQPRP | 0.134 |
| RRIRGRPPRLPRPRPRPTARPRP | 1.27 |
| RRIRVRPPRLPRPRPRPEHTPRP | 0.224 |
| RRIRERPPRLPRPRPRPYFPPRP | -0.307 |
| RRIRDRPPRLPRPRPRPVYVPRP | -0.563 |
| RRIRSRPPRLPRPRPRPKCKPRP | -0.0132 |
| RRIRWRPPRLPRPRPRPNWFPRP | 0.156 |

| Sequence | shrunken log2 fold change |
| --- | --- |
| RRIRDRPPRLPRPRPRPMMPPRP | -0.00348 |
| RRIRFRPPRLPRPRPRPSYFPRP | -0.479 |
| RRIRERPPRLPRPRPRPDNMPRP | -0.2 |
| RRIRDRPPRLPRPRPRPMSGPRP | -0.0837 |
| RRIRGRPPRLPRPRPRPDYFPRP | -0.0114 |
| RRIRFRPPRLPRPRPRPWSQPRP | -0.0158 |
| RRIRRRPPRLPRPRPRPQFMPRP | -0.139 |
| RRIRFRPPRLPRPRPRPGYCPRP | -0.321 |
| RRIRIRPPRLPRPRPRPHIMPRP | -1.41 |
| RRIRVRPPRLPRPRPRPTMQPRP | 0.158 |
| RRIRFRPPRLPRPRPRPNQIPRP | -0.23 |
| RRIRARPPRLPRPRPRPECNPRP | 0.807 |
| RRIRHRPPRLPRPRPRPVYIPRP | -0.0204 |
| RRIRSRPPRLPRPRPRPCMVPRP | -0.511 |
| RRIRKRPPRLPRPRPRPHGMPRP | -0.00215 |
| RRIRERPPRLPRPRPRPIHYPRP | -0.0107 |
| RRIRKRPPRLPRPRPRPMKAPRP | -0.00163 |
| RRIRKRPPRLPRPRPRPHRSPRP | 0.0882 |
| RRIRQRPPRLPRPRPRPNNLPRP | -0.401 |
| RRIRHRPPRLPRPRPRPRHMPRP | -0.0251 |
| RRIRCRPPRLPRPRPRPNQKPRP | 0.184 |
| RRIRWRPPRLPRPRPRPFNWPRP | -0.0369 |

| Sequence | shrunken log2 fold change |
| --- | --- |
| RRIRDRPPRLPRPRPRPQLGPRP | 0.0197 |
| RRIRLRPPRLPRPRPRPTNEPRP | -0.127 |
| RRIRTRPPRLPRPRPRPNVEPRP | -0.00865 |
| RRIRPRPPRLPRPRPRPSHEPRP | 0.0992 |
| RRIRHRPPRLPRPRPRPLSMPRP | -0.396 |
| RRIRMRPPRLPRPRPRPLGRPRP | 0.723 |
| RRIRSRPPRLPRPRPRPKVQPRP | 0.293 |
| RRIRYRPPRLPRPRPRPFHDPRP | -0.195 |
| RRIRYRPPRLPRPRPRPSWPPRP | -0.613 |
| RRIRCRPPRLPRPRPRPKDMPRP | -0.531 |
| RRIRKRPPRLPRPRPRPSTSPRP | -0.0896 |
| RRIRNRPPRLPRPRPRPRCSPRP | 0.019 |
| RRIRIRPPRLPRPRPRPFISPRP | -1.43 |
| RRIRKRPPRLPRPRPRPDTMPRP | 0.224 |
| RRIRMRPPRLPRPRPRPQWCPRP | -0.0474 |
| RRIRLRPPRLPRPRPRPWGMPRP | -0.0457 |
| RRIRHRPPRLPRPRPRPHSIPRP | -0.318 |
| RRIRYRPPRLPRPRPRPRDMPRP | -0.339 |
| RRIRERPPRLPRPRPRPVFSPRP | -0.191 |
| RRIRERPPRLPRPRPRPILYPRP | -0.615 |
| RRIRDRPPRLPRPRPRPGQYPRP | -0.0267 |
| RRIRYRPPRLPRPRPRPVQEPRP | -0.149 |

| Sequence | shrunken log2 fold change |
| --- | --- |
| RRIRFRPPRLPRPRPRPRLHPRP | 0.0811 |
| RRIRQRPPRLPRPRPRPCQFPRP | 0.0287 |
| RRIRRRPPRLPRPRPRPWIGPRP | 0.0943 |
| RRIRERPPRLPRPRPRPTVSPRP | -0.137 |
| RRIRDRPPRLPRPRPRPCIKPRP | 0.0183 |
| RRIRKRPPRLPRPRPRPNPHPRP | 0.188 |
| RRIRVRPPRLPRPRPRPQTPPRP | 0.546 |
| RRIRIRPPRLPRPRPRPDEHPRP | -0.272 |
| RRIRGRPPRLPRPRPRPLNDPRP | 0.388 |
| RRIRSRPPRLPRPRPRPDKWPRP | 0.858 |
| RRIRIRPPRLPRPRPRPVRGPRP | 0.413 |
| RRIRLRPPRLPRPRPRPPNGPRP | -0.0536 |
| RRIRFRPPRLPRPRPRPIEHPRP | -0.215 |
| RRIRMRPPRLPRPRPRPRRRPRP | 1.53 |
| RRIRLRPPRLPRPRPRPFEMPRP | -0.00193 |
| RRIRVRPPRLPRPRPRPGHVPRP | 0.0316 |
| RRIRHRPPRLPRPRPRPYSWPRP | -0.345 |
| RRIRCRPPRLPRPRPRPTFKPRP | -0.148 |
| RRIRSRPPRLPRPRPRPSMPPRP | -0.706 |
| RRIRLRPPRLPRPRPRPNHRPRP | 0.00288 |
| RRIRFRPPRLPRPRPRPECYPRP | -0.155 |
| RRIRMRPPRLPRPRPRPLYVPRP | -0.111 |

| Sequence | shrunken log2 fold change |
| --- | --- |
| RRIRPRPPRLPRPRPRPCWGPRP | -0.0769 |
| RRIRKRPPRLPRPRPRPNVSPRP | 0.106 |
| RRIRTRPPRLPRPRPRPPIHPRP | -0.323 |
| RRIRQRPPRLPRPRPRPFMAPRP | -0.61 |
| RRIRARPPRLPRPRPRPMPDPRP | 0.74 |
| RRIRHRPPRLPRPRPRPIAPPRP | 0.0449 |
| RRIRRRPPRLPRPRPRPTSDPRP | 0.256 |
| RRIRVRPPRLPRPRPRPGHPPRP | 0.146 |
| RRIRPRPPRLPRPRPRPINHPRP | -0.619 |
| RRIRKRPPRLPRPRPRPEPVPRP | 0.0885 |
| RRIRYRPPRLPRPRPRPDGDPRP | 0.00902 |
| RRIRFRPPRLPRPRPRPWKYPRP | -0.411 |
| RRIRERPPRLPRPRPRPDTHPRP | -0.532 |
| RRIRSRPPRLPRPRPRPLLEPRP | 0.243 |
| RRIRNRPPRLPRPRPRPHQWPRP | -0.0998 |
| RRIRWRPPRLPRPRPRPPASPRP | 0.319 |
| RRIRSRPPRLPRPRPRPDVRPRP | 0.0647 |
| RRIRARPPRLPRPRPRPWIQPRP | -0.103 |
| RRIRFRPPRLPRPRPRPNFAPRP | -0.125 |
| RRIRRRPPRLPRPRPRPMICPRP | -0.0373 |
| RRIRCRPPRLPRPRPRPWNLPRP | -0.19 |
